Results from paper PMC5799168 (Scientific Reports, 2018).
Where a chain is given by its changes, count along the chain named. In names and notes the source's numbering stands.

B1: M485E: recombinant Ndi1 mutant M485E (protein, UniProt P32340 27-513, looked up, variant M485E)
Rotenone-insensitive …: STGVENSGAGPTSFKTMKVIDPQHSDKPNVLILGSGWGAISFLKHIDTKKYNVSIISPRSYFLFTPLLPSAPVGTVDEKSIIEPIVNFALKKKGNVTYYEAEATSINPDRNTVTIKSLSAVSQLYQPENHLGLHQAEPAEIKYDYLISAVGAEPNTFGIPGVTDYGHFLKEIPNSLEIRRTFAANLEKANLLPKGDPERRRLLSIVVVGGGPTGVEAAGELQDYVHQDLRKFLPALAEEVQIHLVEALPIVLNMFEKKLSSYAQSHLENTSIKVHLRTAVAKVEEKQLLAKTKHEDGKITEETIPYGTLIWATGNKARPVITDLFKKIPEQNSSKRGLAVNDFLQVKGSNNIFAIGDNAFAGLPPTAQVAHQEAEYLAKNFDKMAQIPNFQKNLSSRKDKIDLLFEENNFKPFKYNDLGALAYLGSERAIATIRSGKRTFYTGGGLMTFYLWRILYLSEILSARSRLKVFFDWIKLAFFKRDFFKGL
B2: Q394A: recombinant Ndi1 mutant Q394A (protein, UniProt P32340 27-513, looked up, variant Q394A)
Rotenone-insensitive …: B1 Rotenone-insensitive … with Q368A, E459M
B3: R479I: recombinant Ndi1 mutant R479I (protein, UniProt P32340 27-513, looked up, variant R479I)
Rotenone-insensitive …: B1 Rotenone-insensitive … with R453I, E459M
B4: R479K: recombinant Ndi1 mutant R479K (protein, UniProt P32340 27-513, looked up, variant R479K)
Rotenone-insensitive …: B1 Rotenone-insensitive … with R453K, E459M
B5: S484I: recombinant Ndi1 mutant S484I (protein, UniProt P32340 27-513, looked up, variant S484I)
Rotenone-insensitive …: B1 Rotenone-insensitive … with S458I, E459M
B6: L444N: recombinant Ndi1 mutant L444N (protein, UniProt P32340 27-513, looked up, variant L444N)
Rotenone-insensitive …: B1 Rotenone-insensitive … with L418N, E459M
B7: R479A: recombinant Ndi1 mutant R479A (protein, UniProt P32340 27-513, looked up, variant R479A)
Rotenone-insensitive …: B1 Rotenone-insensitive … with R453A, E459M
B8: Wild type: wild-type recombinant Saccharomyces cerevisiae Ndi1 (NADH dehydrogenase) (protein, UniProt P32340 27-513, looked up)
Rotenone-insensitive …: B1 Rotenone-insensitive … with E459M
B9: P92A: recombinant Ndi1 mutant P92A (protein, UniProt P32340 27-513, looked up, variant P92A)
Rotenone-insensitive …: B1 Rotenone-insensitive … with P66A, E459M
B10: M485A: recombinant Ndi1 mutant M485A (protein, UniProt P32340 27-513, looked up, variant M485A)
Rotenone-insensitive …: B1 Rotenone-insensitive … with E459A
B11: R479H: recombinant Ndi1 mutant R479H (protein, UniProt P32340 27-513, looked up, variant R479H)
Rotenone-insensitive …: B1 Rotenone-insensitive … with R453H, E459M
B12: Y482F: recombinant Ndi1 mutant Y482F (protein, UniProt P32340 27-513, looked up, variant Y482F)
Rotenone-insensitive …: B1 Rotenone-insensitive … with Y456F, E459M
B13: I459N: recombinant Ndi1 mutant I459N (protein, UniProt P32340 27-513, looked up, variant I459N)
Rotenone-insensitive …: B1 Rotenone-insensitive … with I433N, E459M
B14: L447N: recombinant Ndi1 mutant L447N (protein, UniProt P32340 27-513, looked up, variant L447N)
Rotenone-insensitive …: B1 Rotenone-insensitive … with L421N, E459M
B15: S484F: recombinant Ndi1 mutant S484F (protein, UniProt P32340 27-513, looked up, variant S484F)
Rotenone-insensitive …: B1 Rotenone-insensitive … with S458F, E459M

Experiments:
Ndi1 = molecular target: T1, Ndi1 (Saccharomyces cerevisiae, UniProt P32340); assay: Inhibition of NADH-ubiquinone-1 oxidoreductase activity of the purified Ndi1; assay type: biochemical; conditions: for IC50: NADH-ubiquinone-1 oxidoreductase activity, purified recombinant Ndi1, 100 µM NADH, pH 6.0, mean ± S.E.M of three independent experiments; for Inhibition mode: inhibition mode for ubiquinone-1, from intersection point in Lineweaver-Burk plots, 100 µM NADH; for Ki: non-linear regression of mixed type inhibition (GraphPad Prism 6), versus ubiquinone-1; for Ki / α (α > 0): mean ± S.D.; for α (α > 0): α of mixed model inhibition fit (αKi = dissociation constant of ternary enzyme-substrate-inhibitor complex)
T1 construct: The mature Ndi1, which lacks a mitochondrial targeting; (His)10; made in house; host or cells: E. coli BL21(DE3)pLysS, plasmid pET16b(NDI1-m)
T1 sequence (P32340 27-513): B1 Rotenone-insensitive … with E459M
Method: NADH-ubiquinone oxidoreductase activity was measured as described previously. In brief, the reaction was started by adding 100 µM NADH to the enzyme mixture containing 10 ng/mL Ndi1, 50 mM sodium phosphate (pH 6.0) and 1 mM EDTA, which was pre-incubated with various concentrations of ubiquinone-1 for 1 min. […] The concentrations of inhibitors required to obtain the half-maximal inhibition (IC50) were estimated by non-linear regression dose-response curves. The inhibition mode of each inhibitor for ubiquinone-1 was determined by the intersection point in double-reciprocal plots (Fig. 2B–E). To objectively evaluate the inhibition mode, the data of the inhibition kinetics were fitted to the Eq.
This equation provides two dissociation constants, one for the binary enzyme-inhibitor complex (Ki), the other for the ternary enzyme-substrate-inhibitor complex (αKi).

[1] = test system: wild-type and mutant Ndi1; assay: Kinetic parameters of the oxidoreductase activity of wild-type and mutant Ndi1 for ubiquinone-1; assay type: biochemical, Saccharomyces cerevisiae; conditions: for Km: apparent Km for ubiquinone-1 (2.4–60 µM); for Km / Vmax: NADH fixed at 100 µM; for Vmax: ubiquinone-1 as substrate (2.4–60 µM)
Method: This unique structure appears to be related to the competitive nature of the inhibition of Ndi1 oxidoreductase activity by stigmatellin. It is therefore hypothesized that L444, I459, R460, and S461, which interact with stigmatellin at the STG-1a site, are also involved in the binding of the substrate ubiquinone (Fig. 5). This hypothesis was evaluated by examining the effects of mutations of the proximal L444 and I459 on the kinetics of the enzymatic reaction of Ndi1. The effect of the mutation of S484, which specifically interacts with stigmatellin at the STG-1b site, was examined as a control. Furthermore, the effects of mutations of W63, P92, A393, Q394, H397, L447, Y482, M485, and L487, which interact with the aromatic head group of stigmatellin at the STG-1a and STG-1b sites, were also examined. Moreover, to investigate the functional role of the STG-2 site in ubiquinone binding, a mutation was also introduced to R479.
NADH-ubiquinone oxidoreductase activity was measured as described previously. In brief, the reaction was started by adding 100 µM NADH to the enzyme mixture containing 10 ng/mL Ndi1, 50 mM sodium phosphate (pH 6.0) and 1 mM EDTA, which was pre-incubated with various concentrations of ubiquinone-1 for 1 min. The decrease in 340 nm absorbance was measured as an indication of the oxidation of NADH (ε = 6.22 mM^−1 cm^−1) with a Shimadzu UV2000 spectrophotometer (Kyoto, Japan). The enzymatic activity obtained with 100 µM NADH and 60 µM ubiquinone-1 in the absence of any inhibitors (100% activity) catalyzed the oxidation of 1,890 μmol NADH/min/mg Ndi1. The concentrations of inhibitors required to obtain the half-maximal inhibition (IC50) were estimated by non-linear regression dose-response curves. The inhibition mode of each inhibitor for ubiquinone-1 was determined by the intersection point in double-reciprocal plots (Fig. 2B–E). To objectively evaluate the inhibition mode, the data of the inhibition kinetics were fitted to the Eq. (1) of mixed model inhibition in the Prism6 software program (GraphPad Software, Inc., La Jolla, CA).1 V=Vmax[S]/[S](1+[I]/αKi)+Km(1+[I]/Ki) […]
To determine the kinetic parameters of wild-type and mutant enzymes for ubiquinone-1, the NADH oxidation rates were measured in a fixed concentration of NADH (100 µM) and different concentrations of ubiquinone-1 (2.4–60 µM). Apparent Km and Vmax values were obtained by fitting a data set of initial velocity versus substrate concentration to the Michaelis-Menten model equation in the Prism6 software program.
Site-directed mutagenesis. The amino acid replacements of Ndi1 were basically performed with PrimeSTAR mutagenesis basal kit (Takara, Japan) using pET16b(NDI1-m) (2) and a synthetic oligonucleotide primer set (Table S2). The mutagenesis of H397 was performed with a QuikChange II XL site-directed mutagenesis kit (Stratagene, CA). Each mutation was confirmed through DNA sequencing (DNA sequencing service, Eurofins). The purification procedure of wild-type and mutant enzymes, used for the determination of the kinetic parameters (Table 2), was basically the same as the above procedure, without the replacement of the detergent from Triton X -100 with DDM. After washing the enzyme with buffer A containing 0.1% Triton X-100 and 15 mM histidine, 0.02% Triton X-100 was added to all buffer as a substitute for DDM. With the exception of 5 mutants containing L444D, I459A, […]
yield of the wild-type enzyme. […]

Molecule | Km [1] [µM] | Vmax, % of the wild-type activity ([1]; relative to wild-type Ndi1) [%] | Vmax [1] [µmol/min/mg] | also measured
CC(/C=C/[C@@]1(C)[C@H](C)CCC(=O)[C@@H]1C)=C\Cc1c(O)c(Cl)c(C)c(C=O)c1O [Ascochlorin, ascochlorin] | – | – | – | IC50 (Ndi1): 955 ± 139 nM; Inhibition mode (Ndi1): mixed; Ki (Ndi1): 728 ± 191 nM; α (α > 0) (Ndi1): 2.64±1.87
CCCCCCCCCCCCc1cc(=O)c2ccccc2n1O [AC0-12, 1-hydroxy-2-dodecyl-4(1 H) quinolone] | – | – | – | IC50 (Ndi1): 115 ± 18 nM; Inhibition mode (Ndi1): mixed; Ki (Ndi1): 14 ± 1.9 nM; α (α > 0) (Ndi1): 13.0±11.7
C/C=C(C)/C=C/C=C/[C@H](OC)[C@@H](C)[C@@H](OC)[C@@H](C)CCc1oc2c(O)c(OC)cc(OC)c2c(=O)c1C [Stigmatellin, stigmatellin] | – | – | – | IC50 (Ndi1): 107 ± 21 nM; Inhibition mode (Ndi1): competitive; Ki (Ndi1): 93.9 ± 30.4 nM; α (α > 0) (Ndi1): ~6.33×10^20; α (α > 0) (Ndi1; listed as stigmatellin): close to infinity
B1 | 63.5 ± 7.8 | 112 | 1190 ± 96 | increase of Km value for ubiquinone-1 in comparison to wild-type enzyme ([1]; relative to wild-type Ndi1): 2.8 fold
B2 | 24.5 ± 1.7 | 37 | 391 ± 3.3 | –
B3 | 27.7 ± 1.2 | – | 0.313 ± 0.007 | –
B4 | 9.37 ± 0.48 | 29 | 305 ± 5.8 | –
B5 | 25 ± 1.7 | – | 1010 ± 33 | –
B6 | 23.9 ± 2 | – | 1333 ± 14 | –
B7 | 11.5 ± 0.58 | 30 | 316 ± 6.1 | –
B8 | 22.7 ± 1 | – | 1060 ± 6.1 | –
B9 | 25.6 ± 2.2 | 1 | 11.3 ± 0.4 | –
B10 | 18.6 ± 1.1 | 28 | 292 ± 9.9 | –
B11 | 23.5 ± 1.4 | 0.1 | 1.06 ± 0.035 | –
B12 | 23.3 ± 2 | – | 1090 ± 45 | –
B13 | 30.3 ± 2 | – | 11.1 ± 0.096 | –
B14 | 17.9 ± 1.8 | 13 | 140 ± 7.1 | –
B15 | 24.5 ± 3.9 | – | 1160 ± 120 | –
